Experimental data published in patent publication US20250263482A1.

Biological target: human CLDN18.2 expressed on cells (human)
Assay: cell-based or functional assay

## Human IgG1 isotype antibody
  ADCC on KATOIII CLDN18.2 cells, LDH: max (% cytotoxity), run A: 0.3%
  ADCC on KATOIII CLDN18.2 cells, LDH: max (% cytotoxity), run B: -5.51%
  ADCC on KATOIII CLDN18.2 cells, LDH: max (% cytotoxity), run C: -7.64%
  ADCC on NCI-N87 CLDN18.2 cells, LDH: max (% cytotoxity), run A: -6.73%
  ADCC on NCI-N87 CLDN18.2 cells, LDH: max (% cytotoxity), run B: -11.7%
  ADCC on NCI-N87 CLDN18.2 cells, LDH: max (% cytotoxity), run C: -9.22%
  CDC on CT26 CLDN18.2 cells, LDH: max (% cytotoxity), run A: 10.8%
  CDC on CT26 CLDN18.2 cells, LDH: max (% cytotoxity), run B: -0.23%
  CDC on CT26 CLDN18.2 cells, LDH: max (% cytotoxity), run C: -0.38%
  CDC on KATOIII CLDN18.2 cells, LDH: max (% cytotoxity), run A: -0.85%
  CDC on KATOIII CLDN18.2 cells, LDH: max (% cytotoxity), run B: -2.46%
  CDC on KATOIII CLDN18.2 cells, LDH: max (% cytotoxity), run C: -1.53%
